Source: patent US7452534

B1: CE9.1, monkey/human chimeric anti-CD4 monoclonal antibody (cynomolgus variable domains, human gamma 1 / lambda constant regions) (antibody)
heavy: not shown
light: SYELSQPRSVSVSPGQTAGFTCGGDNVGRKSVQWYQQKPPQAPVLVIYADSERPSGIPARFSGSNSGNTATLTISGVEAGDEADYYCQVWDSTADHWVFGGGTRLTVLGQPKAAPSVTLFPPSSEELQANKATLVCLISDFYPGAVTVAWKADSSPVKAGVETTTPSKQSNNKYAASSYLSLTPEQWKSHRSYSCQVTHEGSTVEKTVAPTECS
notes: domain: gamma 1 constant region; the entries may be DNA and may hold a leader; also called mAb CE9.1; monkey/human recombinant antibody (ATCC No. 69030)
B2: CE9γ4E, chimeric anti-CD4 antibody with human gamma 4 constant domain carrying the E modification (L236E) (antibody, human IgG4, lambda)
heavy: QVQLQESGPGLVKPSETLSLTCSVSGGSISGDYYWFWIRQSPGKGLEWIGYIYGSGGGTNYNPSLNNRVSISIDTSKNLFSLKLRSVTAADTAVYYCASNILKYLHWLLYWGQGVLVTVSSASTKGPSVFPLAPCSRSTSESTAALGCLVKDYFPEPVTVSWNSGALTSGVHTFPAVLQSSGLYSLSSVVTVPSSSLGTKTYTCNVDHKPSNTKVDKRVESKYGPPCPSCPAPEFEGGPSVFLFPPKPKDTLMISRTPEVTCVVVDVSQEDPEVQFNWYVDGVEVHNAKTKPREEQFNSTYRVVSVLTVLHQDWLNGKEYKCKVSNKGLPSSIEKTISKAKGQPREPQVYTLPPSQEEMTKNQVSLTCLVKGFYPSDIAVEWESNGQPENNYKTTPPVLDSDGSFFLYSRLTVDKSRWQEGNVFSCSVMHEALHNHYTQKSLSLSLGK
light: SYELSQPRSVSVSPGQTAGFTCGGDNVGRKSVQWYQQKPPQAPVLVIYADSERPSGIPARFSGSNSGNTATLTISGVEAGDEADYYCQVWDSTADHWVFGGGTRLTVLGQPKAAPSVTLFPPSSEELQANKATLVCLISDFYPGAVTVAWKADSSPVKAGVETTTPSKQSNNKYAASSYLSLTPEQWKSHRSYSCQVTHEGSTVEKTVAPTECS
notes: IgG4 (L236E; 248 Kabat numbering) lambda; also called CE9γ4E(G4E); CE9γE
B3: CE9γ4, chimeric anti-CD4 antibody with human gamma 4 constant domain (antibody, human IgG4, lambda)
heavy: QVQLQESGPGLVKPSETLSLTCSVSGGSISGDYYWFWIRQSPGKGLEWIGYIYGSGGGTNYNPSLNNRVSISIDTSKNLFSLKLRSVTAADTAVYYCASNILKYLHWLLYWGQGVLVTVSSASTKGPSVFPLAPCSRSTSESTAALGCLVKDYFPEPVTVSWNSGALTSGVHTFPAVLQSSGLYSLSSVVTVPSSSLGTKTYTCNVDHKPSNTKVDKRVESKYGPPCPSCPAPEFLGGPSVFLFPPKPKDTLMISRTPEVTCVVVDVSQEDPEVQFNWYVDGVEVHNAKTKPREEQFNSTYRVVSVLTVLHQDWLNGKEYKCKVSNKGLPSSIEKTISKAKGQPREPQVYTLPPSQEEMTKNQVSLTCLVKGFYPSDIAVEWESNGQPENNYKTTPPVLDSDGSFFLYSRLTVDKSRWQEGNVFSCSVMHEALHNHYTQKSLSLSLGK
light: SYELSQPRSVSVSPGQTAGFTCGGDNVGRKSVQWYQQKPPQAPVLVIYADSERPSGIPARFSGSNSGNTATLTISGVEAGDEADYYCQVWDSTADHWVFGGGTRLTVLGQPKAAPSVTLFPPSSEELQANKATLVCLISDFYPGAVTVAWKADSSPVKAGVETTTPSKQSNNKYAASSYLSLTPEQWKSHRSYSCQVTHEGSTVEKTVAPTECS
notes: IgG4 lambda; also called CE9γ4(G4); anti-CD4 (G4, L, Oz-)
B4: CE9γ4PE, chimeric anti-CD4 antibody with human gamma 4 constant domain carrying the P and E modifications (S229P, L236E) (antibody, human IgG4 S228P, lambda)
heavy: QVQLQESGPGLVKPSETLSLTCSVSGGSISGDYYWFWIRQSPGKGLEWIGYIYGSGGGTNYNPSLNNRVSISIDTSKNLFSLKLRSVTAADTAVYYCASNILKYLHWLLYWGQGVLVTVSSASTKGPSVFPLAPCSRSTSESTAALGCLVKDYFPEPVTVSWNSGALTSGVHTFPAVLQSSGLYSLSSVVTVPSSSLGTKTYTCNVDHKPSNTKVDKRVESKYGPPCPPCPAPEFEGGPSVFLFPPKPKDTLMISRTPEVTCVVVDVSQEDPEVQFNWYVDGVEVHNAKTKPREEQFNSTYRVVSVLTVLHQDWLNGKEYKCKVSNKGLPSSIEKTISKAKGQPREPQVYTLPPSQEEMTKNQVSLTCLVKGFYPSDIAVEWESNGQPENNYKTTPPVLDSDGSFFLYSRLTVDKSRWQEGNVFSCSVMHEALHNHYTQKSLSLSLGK
light: SYELSQPRSVSVSPGQTAGFTCGGDNVGRKSVQWYQQKPPQAPVLVIYADSERPSGIPARFSGSNSGNTATLTISGVEAGDEADYYCQVWDSTADHWVFGGGTRLTVLGQPKAAPSVTLFPPSSEELQANKATLVCLISDFYPGAVTVAWKADSSPVKAGVETTTPSKQSNNKYAASSYLSLTPEQWKSHRSYSCQVTHEGSTVEKTVAPTECS
notes: IgG4 (S229P, L236E; 241 and 248 Kabat numbering) lambda, expressed in CHO; also called CE97PE(G4PE); CE9-4PE
B5: CE9γ4λK, chimeric anti-CD4 antibody with human gamma 4 heavy chain constant domain and human kappa light chain constant region (antibody)
heavy: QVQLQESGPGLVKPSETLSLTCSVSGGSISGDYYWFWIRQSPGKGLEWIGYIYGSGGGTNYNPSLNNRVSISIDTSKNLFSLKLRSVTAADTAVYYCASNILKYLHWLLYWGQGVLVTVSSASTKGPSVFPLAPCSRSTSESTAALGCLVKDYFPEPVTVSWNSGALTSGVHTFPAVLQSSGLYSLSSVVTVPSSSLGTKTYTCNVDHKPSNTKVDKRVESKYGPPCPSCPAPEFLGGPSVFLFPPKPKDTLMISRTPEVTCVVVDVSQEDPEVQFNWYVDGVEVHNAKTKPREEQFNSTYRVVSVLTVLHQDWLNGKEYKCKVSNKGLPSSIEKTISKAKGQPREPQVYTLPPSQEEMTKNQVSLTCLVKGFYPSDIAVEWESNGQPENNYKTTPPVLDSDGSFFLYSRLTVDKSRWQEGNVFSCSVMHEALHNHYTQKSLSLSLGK
light: SYELSQPRSVSVSPGQTAGFTCGGDNVGRKSVQWYQQKPPQAPVLVIYADSERPSGIPARFSGSNSGNTATLTISGVEAGDEADYYCQVWDSTADHWVFGGGTRLTVLG
notes: also called CE9γ4XK; CE9γ4K

Experiments:
human CD4 on cells [1] = target: T1, human CD4 on cells (human, UniProt P01730 26-458); assay: cell-based or functional assay
[2] = target: T2, recombinant human soluble CD4 (human, UniProt P01730 26-394, limits assumed); assay: SPR (BIAcore) saturation binding of soluble CD4 to immobilized mAb
T2 construct: Soluble form; also called sCD4
Method: (§1) The stoichiometry of binding of soluble CD4 to immobilized mAbs can be determined by saturation binding experiments on BIAcore (Pharmacia). Data for the association and dissociation phases of the SPR progress (FIG. 19) were analyzed directly using the integrated form of the rate equations as described in O'Shannessey et al., Anal. Biochem., 212: 467-468 (1993). […] Thus, the stoichiometry of CD4 binding was the same for all mAbs and close to the theoretical value of 2.0.

[3] = target: T2, recombinant human soluble CD4; assay: SPR
human CD4 on cells [4] = target: T1, human CD4 on cells; assay: cell-based or functional assay; remark: listed apart in the source
[5] = target: T2, recombinant human soluble CD4; assay: SPR (BIAcore), soluble CD4 on immobilized mAb, 25 C
Method: as §1

human C1q = target: T3, human C1q (human, UniProt P02745 23-245; P02746 28-253; P02747 29-245); assay: C1q binding (summary table of effector functions)
T3 construct: also called Clq
T3 sequence (P02745 23-245 limits assumed, chain 1 of 3): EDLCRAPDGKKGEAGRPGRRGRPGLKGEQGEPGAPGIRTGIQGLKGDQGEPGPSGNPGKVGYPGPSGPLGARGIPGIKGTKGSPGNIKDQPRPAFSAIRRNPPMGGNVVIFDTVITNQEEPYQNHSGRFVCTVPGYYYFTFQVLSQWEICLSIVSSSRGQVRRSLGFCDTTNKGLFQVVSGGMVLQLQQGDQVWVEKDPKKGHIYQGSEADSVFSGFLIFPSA
T3 sequence (P02746 28-253 limits assumed, chain 2 of 3): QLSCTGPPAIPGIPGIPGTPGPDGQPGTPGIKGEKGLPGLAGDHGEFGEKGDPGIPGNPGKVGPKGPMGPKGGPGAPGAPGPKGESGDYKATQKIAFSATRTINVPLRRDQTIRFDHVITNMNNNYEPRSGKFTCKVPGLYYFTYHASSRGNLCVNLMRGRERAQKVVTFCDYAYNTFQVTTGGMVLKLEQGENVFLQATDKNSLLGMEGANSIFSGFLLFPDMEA
T3 sequence (P02747 29-245 limits assumed, chain 3 of 3): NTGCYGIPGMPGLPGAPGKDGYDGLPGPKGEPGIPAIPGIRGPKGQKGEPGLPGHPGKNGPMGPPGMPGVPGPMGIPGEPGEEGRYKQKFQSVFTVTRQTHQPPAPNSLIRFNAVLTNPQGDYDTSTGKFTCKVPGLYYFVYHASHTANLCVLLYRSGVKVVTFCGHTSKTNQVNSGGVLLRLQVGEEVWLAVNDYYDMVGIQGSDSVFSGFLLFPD

[6] = target: T4, chimpanzee CD4 on lymphocytes (chimpanzee, UniProt P16004 26-458); assay: flow cytometry of blood of chimpanzees dosed at 1.5 mg/kg
T4 construct: whole, on cells
T4 sequence (P16004 26-458): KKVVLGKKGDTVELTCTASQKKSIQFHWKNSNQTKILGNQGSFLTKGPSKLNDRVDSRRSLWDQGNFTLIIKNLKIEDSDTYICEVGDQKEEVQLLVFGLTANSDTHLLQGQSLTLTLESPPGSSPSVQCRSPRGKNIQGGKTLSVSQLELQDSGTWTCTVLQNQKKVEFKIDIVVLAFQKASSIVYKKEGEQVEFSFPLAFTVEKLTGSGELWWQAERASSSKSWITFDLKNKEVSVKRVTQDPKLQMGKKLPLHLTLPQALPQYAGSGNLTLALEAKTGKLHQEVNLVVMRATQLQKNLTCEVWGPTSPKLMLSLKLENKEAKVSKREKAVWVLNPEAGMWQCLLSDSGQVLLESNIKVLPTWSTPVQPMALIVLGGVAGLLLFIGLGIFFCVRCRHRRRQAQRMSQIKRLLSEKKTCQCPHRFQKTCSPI
Method: Six chimpanzees were examined for depletion of CD4^+ T cells and/or modulation of the CD4 receptor from the cell surface after infusions of increasing doses of antibody CE9γ4PE, up to 15 mg/kg. Peripheral blood samples were taken from each chimpanzee three weeks and two weeks prior to the start of the study to establish baseline levels for CD4^+ T cells. In addition to CD4^+ cells, CD3^+ and CD8^+ cell levels were also measured by flow cytometry. […] By subtraction of CD8^+ counts from total CD3^+ counts a theoretical value for the number of CD4^+ T cells could be calculated. By comparing this value with the CD4^+ cells measured suing OKT4, CD4 receptor modulation could be distinguished from CD4^+ cell depletion.

Row | Binder | inhibition of human MLR (proliferation and IL-2 production), IC50 (human CD4 on cells [1]) [ng/mL] | BIAcore Stoichiometry [2] [moles CD4/mole mAb] | Kd [3] [nM] | MLR IL-2 Production (IC50) (human CD4 on cells [4]) [ng/mL] | MLR Proliferation (IC50) (human CD4 on cells [4]) [ng/mL] | Kd [5] [nM] | binding result (human C1q) | binding result [6]
1 | B1 | 10 to 30 | 1.56 | 1 | 5 | 20 | 0.99 | – | –
2 | B2 | – | 1.72 | – | 10 | 20 | 1.43 | – | –
3 | B3 | – | 1.61 | – | 5 | 20 | 1.34 | – | –
4 | B4 | – | – | – | – | 20 | 1.09 | no binding | binds
5 | B5 | – | 1.67 | – | – | – | 1.08 | – | –
